According to PMC6704107 (2019):

B1: Adeno-associated virus receptor (AAVR), wild-type, PKD1-5 domains [not stated] / Adeno-associated virus 1 (AAV1) particle, wild-type capsid [adeno-associated virus 1 (AAV1)] (parent complex)
chain 1: MEKRLGVKPNPASWILSGYYWQTSAKWLRSLYLFYTCFCFSVLWLSTDASESRCQQGKTQFGVGLRSGGENHLWLLEGTPSLQSCWAACCQDSACHVFWWLEGMCIQADCSRPQSCRAFRTHSSNSMLVFLKKFQTADDLGFLPEDDVPHLLGLGWNWASWRQSPPRAALRPAVSSSDQQSLIRKLQKRGSPSDVVTPIVTQHSKVNDSNELGGLTTSGSAEVHKAITISSPLTTDLTAELSGGPKNVSVQPEISEGLATTPSTQQVKSSEKTQIAVPQPVAPSYSYATPTPQASFQSTSAPYPVIKELVVSAGESVQITLPKNEVQLNAYVLQEPPKGETYTYDWQLITHPRDYSGEMEGKHSQILKLSKLTPGLYEFKVIVEGQNAHGEGYVNVTVKPEPRKNRPPIAIVSPQFQEISLPTTSTVIDGSQSTDDDKIVQYHWEELKGPLREEKISEDTAILKLSKLVPGNYTFSLTVVDSDGATNSTTANLTVNKAVDYPPVANAGPNQVITLPQNSITLFGNQSTDDHGITSYEWSLSPSSKGKVVEMQGVRTPTLQLSAMQEGDYTYQLTVTDTIGQQATAQVTVIVQPENNKPPQADAGPDKELTLPVDSTTLDGSKSSDDQKIISYLWEKTQGPDGVQLENANSSVATVTGLQVGTYVFTLTVKDERNLQSQSSVNVIVKEEINKPPIAKITGNVVITLPTSTAELDGSKSSDDKGIVSYLWTRDEGSPAAGEVLNHSDHHPILFLSNLVEGTYTFHLKVTDAKGESDTDRTTVEVKPDPRKNNLVEIILDINVSQLTERLKGMFIRQIGVLLGVLDSDIIVQKIQPYTEQSTKMVFFVQNEPPHQIFKGHEVAAMLKSELRKQKADFLIFRALEVNTVTCQLNCSDHGHCDSFTKRCICDPFWMENFIKVQLRDGDSNCEWSVLYVIIATFVIVVALGILSWTVICCCKRQKGKPKRKSKYKILDATDQESLELKPTSRAGIKQKGLLLSSSLMHSESELDSDDAIFTWPDREKGKLLHGQNGSVPNGQTPLKARSPREEIL
chain 2: MAADGYLPDWLEDNLSEGIREWWDLKPGAPKPKANQQKQDDGRGLVLPGYKYLGPFNGLDKGEPVNAADAAALEHDKAYDQQLKAGDNPYLRYNHADAEFQERLQEDTSFGGNLGRAVFQAKKRVLEPLGLVEEGAKTAPGKKRPVEQSPQEPDSSSGIGKTGQQPAKKRLNFGQTGDSESVPDPQPLGEPPATPAAVGPTTMASGGGAPMADNNEGADGVGNASGNWHCDSTWLGDRVITTSTRTWALPTYNNHLYKQISSASTGASNDNHYFGYSTPWGYFDFNRFHCHFSPRDWQRLINNNWGFRPKRLNFKLFNIQVKEVTTNDGVTTIANNLTSTVQVFSDSEYQLPYVLGSAHQGCLPPFPADVFMIPQYGYLTLNNGSQAVGRSSFYCLEYFPSQMLRTGNNFTFSYTFEEVPFHSSYAHSQSLDRLMNPLIDQYLYYLNRTQNQSGSAQNKDLLFSRGSPAGMSVQPKNWLPGPCYRQQRVSKTKTDNNNSNFTWTGASKYNLNGRESIINPGTAMASHKDDEDKFFPMSGVMIFGKESAGASNTALDNVMITDEEEIKATNPVATERFGTVAVNFQSSSTDPATGDVHAMGALPGMVWQDRDVYLQGPIWAKIPHTDGHFHPSPLMGGFGLKNPPPQILIKNTPVPANPPAEFSATKFASFITQYSTGQVSVEIEWELQKENSKRWNPEVQYTSNYAKSANVDFTVDNNGLYTEPRPIGTRYLTRPL

Variants of: B1
Test: SPR (BIAcore); parent: 13.9 nM

Variant	Kd
chain 1 V427A	35.8 µM
chain 1 T426A	46.9 µM
chain 1 S425A	3.68 µM
